According to paper PMC5923229, “The cysteine-reactive small molecule ebselen facilitates effective SOD1 maturation” (Nature Communications, 2018):

B1: copper chaperone for SOD1 (hCCS), wild-type (natural protein, UniProt O14618 1-274, looked up)
chain: MASDSGNQGTLCTLEFAVQMTCQSCVDAVRKSLQGVAGVQDVEVHLEDQMVLVHTTLPSQEVQALLEGTGRQAVLKGMGSGQLQNLGAAVAILGGPGTVQGVVRFLQLTPERCLIEGTIDGLEPGLHGLHVHQYGDLTNNCNSCGNHFNPDGASHGGPQDSDRHRGDLGNVRADADGRAIFRMEDEQLKVWDVIGRSLIIDEGEDDLGRGGHPLSKITGNSGERLACGIIARSAGLFQNPKQICSCDGLTIWEERGRPIAGKGRKESAQPPAHL
notes: copper chaperone for SOD1 (hCCS), wild type; Desalted into ligand-free, nitrogen-purged buffer

What was measured:
[1] = target: B1; assay: SEC; C57A/C146A SOD1 with or without ebselen (25 uM SOD1, 100 uM ebselen, 3 h, 20 C) and hCCS; complex formed with 250 pmol of both SOD1 and hCCS; conditions: both partners purified
[2] = target: the molecule itself; assay: as above

| binding result [1] | Binder | stoichiometry N [2] |
| --- | --- | --- |
| binds | artificial disulphide knockout SOD1 mutant C57A/C146A (enzyme, superoxide dismutase-1 (SOD1), C57A/C146A; also called ebselen-free SOD1; source: E. coli BL21 (DE3), purified (diethylaminoethyl cellulose); treated with DMSO) not shown | – |
| – | B1 | 2 |
